The source of these data is US20250051433A1 (INMAGENE PTE, published 2025).

Where a chain is given by its changes, count along the chain named. Read-outs that look alike come from different tables or passages of the source.

The target of experiment [1] is T1, mouse long-form TSLP protein (ACRO, tsp-m52h8) (mouse, UniProt Q9JIE6 20-140).
T1 construct: Bought; also called mouse TSLP
T1 sequence (looked up): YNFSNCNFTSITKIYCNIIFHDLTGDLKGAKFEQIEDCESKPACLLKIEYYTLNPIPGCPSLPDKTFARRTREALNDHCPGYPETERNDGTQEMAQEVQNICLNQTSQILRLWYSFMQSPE
Nature of the experiment: ELISA on coated mouse long-form TSLP. For orientation: An ELISA detects its analyte on a solid surface through an enzyme-linked reagent.

The target in experiment [2] is T2, human long form TSLP expressed on cell membrane.
T2 construct: also called membrane long-form huTSLP fusion protein; membrane long-form TSLP fusion protein
Nature of the experiment: FACS on cells expressing the membrane human long-form TSLP fusion protein, MFI; unit taken from the concentration axis.

Experiment [3] has as its target T2, human long form TSLP expressed on cell …. The description is as above. This is another data set of the same source.
Experiment [4] has the same target. Described as above. This is another data set of the same source.
Experiment [5] has the same target. The experiment is described as above. This is another data set of the same source.
In experiment [6] the target is T3, membrane short-form huTSLP fusion protein (human).
T3 construct: also called human short form TSLP expressed on cell membrane
Nature of the experiment: FACS on cells expressing membrane short-form huTSLP, MFI; ambiguous fit of a flat curve (Bottom 778.2, Top 872.2), see non_binding; unit taken from the concentration axis.

Experiment [7] has as its target T2, human long form TSLP expressed on cell …. Nature of the experiment: FACS on cells expressing the membrane human long-form TSLP fusion protein, MFI; rising binding curve, but the table column is headed IC50; unit taken from the concentration axis.
Experiment [8] concerns the target T4, cynomolgus long-form TSLP protein (ACRO, tsp-c52h8) (cynomolgus monkey, UniProt A0A7N9CAT7 29-159).
T4 construct: also called monkey long-form TSLP; Cyno TSLP
T4 sequence: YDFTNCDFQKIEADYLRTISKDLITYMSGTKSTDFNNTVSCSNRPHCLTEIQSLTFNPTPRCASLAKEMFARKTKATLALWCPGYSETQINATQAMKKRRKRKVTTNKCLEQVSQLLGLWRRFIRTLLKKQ
Nature of the experiment: ELISA on coated cynomolgus long-form TSLP, OD450; curve still rising at the highest concentration (about 1.2 at about 20 µg/mL, fitted Top 1.343); unit taken from the concentration axis.

For experiment [9], the target named is T5, human long-form TSLP protein (Acro, tsp-h5255 or tsp-h52ha) (human, UniProt Q969D9 29-159).
T5 construct: If it was tsp-h52ha, this is the same molecule as m12 (His-tagged); also called human TSLP protein
Nature of the experiment: BLI (Gator, HFC probe), antibody loaded at 10 ug/ml, TSLP at 50 to 1.56 nM.

The target of experiment [10] is T5, human long-form TSLP protein (Acro, …). Nature of the experiment: ELISA on coated human long-form TSLP, OD450; unit taken from the concentration axis.
Experiment [11] has the same target. The experiment is described as above. This is another data set of the same source.
Experiment [12] has as its target T4, cynomolgus long-form TSLP protein …. Nature of the experiment: ELISA on coated cynomolgus long-form TSLP, OD450; ambiguous fit of a flat curve (Bottom 0.06295, Top ~ 145.1), see non_binding; unit taken from the concentration axis.
Experiment [13] deals with T3, membrane short-form huTSLP fusion …. Nature of the experiment: FACS on cells expressing membrane short-form huTSLP, MFI; ambiguous fit of a flat curve (Bottom 895.5, Top 876.2), see non_binding; unit taken from the concentration axis.
Experiment [14] deals with T4, cynomolgus long-form TSLP protein …. Nature of the experiment: ELISA on coated cynomolgus long-form TSLP, OD450; ambiguous fit of a flat curve (Bottom 0.06800, Top ~ 0.8608), see non_binding; unit taken from the concentration axis.
Experiment [15] deals with T3, membrane short-form huTSLP fusion …. Nature of the experiment: FACS on cells expressing membrane short-form huTSLP, MFI; ambiguous fit of a flat curve (Bottom 712.4, Top 749.3), see non_binding; unit taken from the concentration axis.
Experiment [16] deals with T5, human long-form TSLP protein (Acro, …). Nature of the experiment: ELISA on coated human long-form TSLP, OD450; unit taken from the concentration axis. The source holds these as a separate data set.

T2 sequence (chain, as listed by the source): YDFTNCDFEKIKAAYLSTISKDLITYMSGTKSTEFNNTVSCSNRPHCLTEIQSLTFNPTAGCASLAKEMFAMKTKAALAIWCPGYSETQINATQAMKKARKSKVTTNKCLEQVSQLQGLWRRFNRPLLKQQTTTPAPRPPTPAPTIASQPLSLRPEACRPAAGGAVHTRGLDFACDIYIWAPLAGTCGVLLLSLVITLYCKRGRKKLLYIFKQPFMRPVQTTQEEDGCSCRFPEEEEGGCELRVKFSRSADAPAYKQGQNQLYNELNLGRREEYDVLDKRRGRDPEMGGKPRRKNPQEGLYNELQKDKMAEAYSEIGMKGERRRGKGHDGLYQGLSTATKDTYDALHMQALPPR
T3 sequence (chain, as listed by the source limits assumed): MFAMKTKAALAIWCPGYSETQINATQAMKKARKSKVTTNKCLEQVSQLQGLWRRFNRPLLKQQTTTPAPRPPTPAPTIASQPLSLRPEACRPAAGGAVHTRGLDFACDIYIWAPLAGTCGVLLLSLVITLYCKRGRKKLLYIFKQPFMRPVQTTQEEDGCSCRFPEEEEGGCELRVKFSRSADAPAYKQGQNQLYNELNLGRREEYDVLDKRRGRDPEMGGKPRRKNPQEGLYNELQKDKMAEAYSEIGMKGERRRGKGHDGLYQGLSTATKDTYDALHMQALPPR
T5 sequence (Q969D9 29-159 R127A/R130A limits assumed): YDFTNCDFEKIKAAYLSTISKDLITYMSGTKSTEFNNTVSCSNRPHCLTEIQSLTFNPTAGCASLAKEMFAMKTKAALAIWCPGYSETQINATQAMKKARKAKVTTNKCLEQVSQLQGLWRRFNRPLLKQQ

B1: AMG 157 (antibody, human IgG2, lambda, V domains shown)
VH: QMQLVESGGGVVQPGRSLRLSCAASGFTFRTYGMHWVRQAPGKGLEWVAVIWYDGSNKHYADSVKGRFTITRDNSKNTLNLQMNSLRAEDTAVYYCARAPQWELVHEAFDIWGQGTMVTVSS
VL: SYVLTQPPSVSVAPGQTARITCGGNNLGSKSVHWYQQKPGQAPVLVVYDDSDRPSWIPERFSGSNSGNTATLTISRGEAGDEADYYCQVWDSSSDHVVFGGGTKLTVLG
notes: also called BMK; benchmark
Consider B1, for which, in experiment [1], the binding result is reported as “no binding (tested: about 20 µg/mL)”. Besides, the EC50 (commonly the concentration that produces a half-maximal response) is 0.219 µg/mL in experiment [2]; 0.156 µg/mL in experiment [3]; 0.0712 µg/mL in [4]; 0.0466 µg/mL in [5]; approximately 13.5 µg/mL in [6]; 0.515 µg/mL in experiment [7]. In experiment [8], this molecule displayed an EC50 of 1.24 µg/mL.

B2: mAb35G12 (antibody)
heavy: QVQLVQSGAEVKKPGSSVKVSCKSSGYAFSSYWINWVRQAPGQGLEWMGQIFPGDGDTTYNGNFKGRVTITADKSTSTAYMELSSLRSEDTAVYYCARSGFDYGYFYAMDYWGQGTTVTVSSASTKGPSVFPLAPCSRSTSESTAALGCLVKDYFPEPVTVSWNSGALTSGVHTFPAVLQSSGLYSLSSVVTVPSSSLGTKTYTCNVDHKPSNTKVDKRVESKYGPPCPPCPAPEAAGGPSVFLFPPKPKDTLYITREPEVTCVVVDVSQEDPEVQFNWYVDGVEVHNAKTKPREEQFNSTYRVVSVLTVLHQDWLNGKEYKCKVSNKGLPSSIEKTISKAKGQPREPQVYTLPPSQEEMTKNQVSLTCLVKGFYPSDIAVEWESNGQPENNYKTTPPVLDSDGSFFLYSRLTVDKSRWQEGNVFSCSVMHEALHNHYTQKSLSLSLG
light: EIVMTQSPATLSVSPGERATLSCSVSSSISSSNLHWYQQKPGQSPRPWIFGTSNLASGIPARFSGSGSGTEFTLTISSLQSEDFAVYYCQQWSSYPLTFGGGTKVEIK
notes: not shown: human kappa light chain constant region ('its corresponding light chain vector')
Consider B2, for which the binding result in [1] is given as “no binding (tested: about 20 µg/mL)”. Also, in experiment [9], the affinity, expressed as Kd, was 1.98 nM. The EC50 was 0.122 µg/mL in experiment [10], 0.206 µg/mL in experiment [11], approximately 51.9 µg/mL in experiment [12] and approximately 0.384 µg/mL in experiment [13].

B3: mAb39H11 (antibody, IgG4)
heavy: QVQLVQSGAEVKKPGSSVKVSCKASGYAFSSYWMNWVRQAPGQGLEWMGQIFPGDGETNYNGKFKGRVTITADKSTSTAYMELSSLRSEDTAVYYCARGGYVNFLYAMDYWGQGTTVTVSSASTKGPSVFPLAPCSRSTSESTAALGCLVKDYFPEPVTVSWNSGALTSGVHTFPAVLQSSGLYSLSSVVTVPSSSLGTKTYTCNVDHKPSNTKVDKRVESKYGPPCPPCPAPEAAGGPSVFLFPPKPKDTLYITREPEVTCVVVDVSQEDPEVQFNWYVDGVEVHNAKTKPREEQFNSTYRVVSVLTVLHQDWLNGKEYKCKVSNKGLPSSIEKTISKAKGQPREPQVYTLPPSQEEMTKNQVSLTCLVKGFYPSDIAVEWESNGQPENNYKTTPPVLDSDGSFFLYSRLTVDKSRWQEGNVFSCSVMHEALHNHYTQKSLSLSLG
light: B2 light with F50Y, N54T
notes: as for B2
For B3, the binding result in experiment [1] is “no binding (tested: about 20 µg/mL)”. For the same molecule, the Kd (in general, the constant that tells how readily two partners part at equilibrium) in experiment [9] was found to be 2.1 nM. The EC50 in [10] was 0.149 µg/mL; in [11], 0.153 µg/mL; in experiment [14], approximately 23.8 µg/mL; in [15], approximately 0.134 µg/mL.

B4: Chi39H11 (antibody, human IgG2, V domains shown)
VH: QVQLQQSGAELVRPGSSVKISCKASGYAFSSYWMNWVKQRPGQGLEWIGQIFPGDGETNYNGKFKGKATLTADKSSSTAYMQLSSLTSEDSAVYFCARGGYVNFLYAMDYWGQGTSVTVSS
VL: EIVLTQSPALMAASPGEKVTITCSVSSSISSSNLHWYQQKSETSPKPWIYGTSTLASGVPVRFSGSGSGTSYSLTISSMEAEDAATYYCQQWSSYPLTFGAGTKLELK
notes: also called 39H11 chimeric antibody
Turning to B4, the EC50 in experiment [16] amounted to 0.0325 µg/mL; in [2], 0.228 µg/mL; in [4], 0.0953 µg/mL; in experiment [5], 0.111 µg/mL.
